Assay [1] has as its target T1, human prolactin receptor on cells (T47D cells; HEK293 and Ba/F cells stably transfected with human PRLR) (human, UniProt P16471 25-622).
T1 sequence (looked up): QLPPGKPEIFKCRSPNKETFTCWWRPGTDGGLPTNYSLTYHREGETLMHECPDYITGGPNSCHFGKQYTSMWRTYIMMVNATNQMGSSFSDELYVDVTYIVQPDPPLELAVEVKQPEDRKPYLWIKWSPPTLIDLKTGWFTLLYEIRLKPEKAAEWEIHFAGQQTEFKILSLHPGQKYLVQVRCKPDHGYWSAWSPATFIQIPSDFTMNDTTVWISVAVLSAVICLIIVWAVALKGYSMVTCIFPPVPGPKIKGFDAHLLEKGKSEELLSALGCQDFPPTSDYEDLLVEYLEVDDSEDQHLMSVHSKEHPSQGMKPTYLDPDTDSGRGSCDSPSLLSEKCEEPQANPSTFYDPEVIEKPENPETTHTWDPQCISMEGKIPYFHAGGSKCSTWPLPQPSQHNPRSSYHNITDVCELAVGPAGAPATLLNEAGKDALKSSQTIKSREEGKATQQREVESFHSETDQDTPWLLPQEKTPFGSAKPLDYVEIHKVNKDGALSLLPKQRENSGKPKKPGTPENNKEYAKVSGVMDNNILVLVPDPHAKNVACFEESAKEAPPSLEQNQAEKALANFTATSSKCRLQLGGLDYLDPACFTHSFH
Nature of the assay: cell-based or functional assay.

Assay [2] has as its target T2, extracellular domain of human PRLR (soluble, monomeric, expressed in HEK293 cells) (human, UniProt P16471 25-234).
T2 construct: also called ECD-PRLR; ECD of PRLR
T2 sequence: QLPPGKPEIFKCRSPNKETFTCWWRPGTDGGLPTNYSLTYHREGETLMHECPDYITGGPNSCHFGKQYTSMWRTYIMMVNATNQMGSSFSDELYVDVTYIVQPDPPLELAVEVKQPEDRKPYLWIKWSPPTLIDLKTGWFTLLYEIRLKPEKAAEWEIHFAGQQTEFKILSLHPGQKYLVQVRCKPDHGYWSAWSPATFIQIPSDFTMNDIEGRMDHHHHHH
The experiment in a line: HTRF competition: Fab-containing E. coli supernatant with biotinylated ECD of human PRLR and streptavidin-europium, then Alexa Fluor 647-labelled IgG1 006-H08 as competitor; signal at 665 nm after 5 to 65 min; lower signal than control Fab 006-H08 = improved binding.

Assay [3] deals with T3, murine prolactin receptor on cells (HEK293 and Ba/F cells stably transfected with murine PRLR) (mouse, UniProt Q08501 20-608).
T3 sequence (looked up): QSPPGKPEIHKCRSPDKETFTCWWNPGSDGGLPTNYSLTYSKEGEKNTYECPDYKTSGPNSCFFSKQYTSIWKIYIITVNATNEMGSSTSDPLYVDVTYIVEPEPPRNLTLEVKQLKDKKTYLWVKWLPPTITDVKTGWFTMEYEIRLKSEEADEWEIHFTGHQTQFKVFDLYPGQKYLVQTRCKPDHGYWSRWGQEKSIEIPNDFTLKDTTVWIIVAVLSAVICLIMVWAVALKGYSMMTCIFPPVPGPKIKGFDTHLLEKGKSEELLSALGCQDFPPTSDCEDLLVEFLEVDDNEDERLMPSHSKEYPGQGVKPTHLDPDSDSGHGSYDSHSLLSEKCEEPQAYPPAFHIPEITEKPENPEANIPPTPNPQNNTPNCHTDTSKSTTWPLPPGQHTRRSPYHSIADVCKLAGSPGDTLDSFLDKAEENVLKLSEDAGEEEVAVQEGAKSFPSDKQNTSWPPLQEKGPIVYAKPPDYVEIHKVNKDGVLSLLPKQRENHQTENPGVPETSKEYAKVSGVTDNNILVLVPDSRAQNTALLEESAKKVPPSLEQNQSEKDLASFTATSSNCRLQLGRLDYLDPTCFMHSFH
Nature of the assay: cell-based or functional assay.

B1: 006-H08 (human IgG1) (antibody, V domains shown)
VH: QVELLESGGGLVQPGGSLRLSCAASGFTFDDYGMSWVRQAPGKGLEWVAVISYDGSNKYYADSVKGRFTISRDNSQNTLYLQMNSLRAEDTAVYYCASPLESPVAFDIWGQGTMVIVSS
VL: DIVLTQPPSASGTPGQRVTISCSGSNSNIGSNPVNWYQQLPGTAPKLLIYDNNKRPSGVPDRFSGSKSGTSASLAISGLRSEDEADYYCQSYDTGLSGWVFGGGTKLTVLG
With B1, the “IC50, prolactin-activated luciferase reporter gene activity, HEK293 cells stably transfected with hPRLR” value in assay [1] is 0.83 µg/mL.

B2: 006-H08-12-2 (Fab, V domains shown)
VH: EVQLLESGGGLVQPGGSLRLSCAASGFTFDDYGMSWVRQAPGKGLEMVAVISFDGSNKYYADSVKGRFTISRDNSQNTLYLQMNSLRAEDTAVYYCASPLESPVAFDIWGQGTLVTVSS
VL: QSVLTQPPSASGTPGQRVTISCSGLNSNVGSSPVNWYQQLPGTAPKLLIYDNNKRPSGVPDRFSGSKSGTSASLAISGLRSEDEADYYCQSYDEGSGMWVFGGGTKLTVL
notes: Tested as E. coli supernatant; also called maturated 006-H08 Fab variant; copies: 1 + 1
Consider B2, for which, in assay [2], the binding result was “binds”.

B3: 006-H08-48-5 (Fab, V domains shown)
VH: EVQLLESGGGLVQPGGSLRLSCAASGFTFDDYGMSWVRQAPGKGLEMVAVISFDGSNKYYADSVKGRFTISRDNSQNTLYLQMNSLRAEDTAVYYCASPLESPVAFDIWGQGTLVTVSS
VL: QSVLTQPPSASGTPGQRVTISCSGLNDNVGSNPVNWYQQLPGTAPKLLIYDNNKRPSGVPDRFSGSKSGTSASLAISGLRSEDEADYYCQSYDTGSSMWVFGGGTKLTVL
notes: as for B2
Consider B3, for which the binding result in assay [2] is listed as “binds”.

B4: 006-H08-29-1 (Fab, V domains shown)
VH: EVQLLESGGGLVQPGGSLRLSCAASGFTFDDYGMSWVRQAPGKGLEMVAVISFDGSNKYYADSVKGRFTISRDNSQNTLYLQMNSLRAEDTAVYYCASPLESPVAFDIWGQGTLVTVSS
VL: QSVLTQPPSASGTPGQRVTISCSGLNDNVGGSPVNWYQQLPGTAPKLLIYDNNKRPSGVPDRFSGSKSGTSASLAISGLRSEDEADYYCQSYDTGAGMWVFGGGTKLTVL
notes: as for B2
As for B4, the binding result in assay [2] is recorded as “binds”.

B5: 006-H08-39-7 (Fab, V domains shown)
VH: EVQLLESGGGLVQPGGSLRLSCAASGFTFDDYGMSWVRQAPGKGLEMVAVISFDGSNKYYADSVKGRFTISRDNSQNTLYLQMNSLRAEDTAVYYCASPLESPVAFDIWGQGTLVTVSS
VL: QSVLTQPPSASGTPGQRVTISCSGLNSNVGGSPVNWYQQLPGTAPKLLIYDNNKRPSGVPDRFSGSKSGTSASLAISGLRSEDEADYYCQSYDEGSGMWVFGGGTKLTVL
notes: as for B2
Take B5: the binding result in assay [2] is listed as “binds”.

B6: 006-H08-15-5 (Fab, V domains shown)
VH: EVQLLESGGGLVQPGGSLRLSCAASGFTFDDYGMSWVRQAPGKGLEMVAVISFDGSNKYYADSVKGRFTISRDNSQNTLYLQMNSLRAEDTAVYYCASPLESPVAFDIWGQGTLVTVSS
VL: QSVLTQPPSASGTPGQRVTISCSGLNSNIGGSPVNWYQQLPGTAPKLLIYDNNKRPSGVPDRFSGSKSGTSASLAISGLRSEDEADYYCQSYDEGLSGWVFGGGTKLTVL
notes: as for B2
With B6, in assay [2], the binding result is “binds”.

B7: HE06.642 (antibody, IgG1, V domains shown)
VH: EVQLVESGGGLVQPGGSLRLSCAVSGFTFSSYGMSWVRQAPGKGLEWVATVSSGGTYTYYPDSVKGRFTISRDNSKNTLYLQMNSLRAEDTAVYYCARHRGNYYATYYYAMDYWGQGTLVTVSS
VL: DIVLTQSPDSLAVSLGERATINCKASKSVSTSGYTYMHWYQQKPGQPPKLLIYLASNRESGVPDRFSGSGSGTDFTLTISPVQAEDVATYYCQHSGELPPSFGQGTKLEIKR
On to B7, for which the “IC50, prolactin-activated luciferase reporter gene activity, HEK293 cells stably transfected with hPRLR” value in assay [1] came out at 0.63 µg/mL. Besides, the “IC50, inhibition of prolactin-activated proliferation of Ba/F cells stably expressing the murine prolactin receptor” value in assay [3] was more than 30 µg/mL.

Source of the values: patent US20130272968A1 (Bayer, published 2013).
